According to patent US20230013244A1 (BioIncept, LLC, priority 2014, published 2023):

Tests used:
[1] = target: Annexin A1 (human) (UniProt P04083); assay: PIF affinity column + LC-MS/MS, CD14+ cell lysate
[2] = target: Histone-binding protein RBBP7 (human) (UniProt E9PC52); assay: PIF affinity column + LC-MS/MS, CD14+ cell lysate
Chain of Histone-binding protein RBBP7 (human) (E9PC52 entry or part of it limits assumed, form in doubt): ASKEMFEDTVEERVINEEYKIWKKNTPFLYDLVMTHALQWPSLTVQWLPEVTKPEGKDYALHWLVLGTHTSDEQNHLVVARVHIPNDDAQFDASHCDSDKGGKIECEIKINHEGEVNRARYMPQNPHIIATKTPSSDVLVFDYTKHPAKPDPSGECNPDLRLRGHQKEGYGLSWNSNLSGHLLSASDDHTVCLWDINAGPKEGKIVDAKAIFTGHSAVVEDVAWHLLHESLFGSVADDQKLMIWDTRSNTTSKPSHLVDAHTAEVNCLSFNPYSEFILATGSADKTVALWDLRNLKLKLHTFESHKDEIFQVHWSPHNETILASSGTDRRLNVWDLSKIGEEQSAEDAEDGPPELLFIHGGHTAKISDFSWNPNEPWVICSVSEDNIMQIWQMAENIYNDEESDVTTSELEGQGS

Chain of Annexin A1 (human) (P04083 2-346 limits assumed): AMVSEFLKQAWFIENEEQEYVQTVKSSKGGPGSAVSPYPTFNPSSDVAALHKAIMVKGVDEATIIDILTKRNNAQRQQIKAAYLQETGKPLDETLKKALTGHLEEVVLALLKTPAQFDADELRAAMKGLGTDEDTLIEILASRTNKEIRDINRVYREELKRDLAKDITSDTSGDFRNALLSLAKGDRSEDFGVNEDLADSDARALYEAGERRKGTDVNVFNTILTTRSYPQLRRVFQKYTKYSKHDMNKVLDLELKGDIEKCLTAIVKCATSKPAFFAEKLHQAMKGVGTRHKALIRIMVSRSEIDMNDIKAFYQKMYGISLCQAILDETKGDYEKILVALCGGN

**Q.** With “PIF-resin (PIF15 affinity ligand on agarose) (peptide)” as the substance, how does the Ave [1] read?
**A.** 1

**Q.** What about the Inject 1 [1] of the same substance?
**A.** 0

**Q.** And the Inject 2 [1]?
**A.** 0

**Q.** And the Ave [2]?
**A.** 1

**Q.** What about the Inject 2 [2] of the same substance?
**A.** 0

**Q.** What about the Inject 3 [2] of the same substance?
**A.** 1
